Laboratory results as given in PMC10467427 (2023).
Like-named read-outs stand apart in the source and are kept apart here.

T1: GST-fused Pins^TPR domains (Drosophila (S2 cell cDNA library), UniProt Q9VB22 1-658)
T1 chain: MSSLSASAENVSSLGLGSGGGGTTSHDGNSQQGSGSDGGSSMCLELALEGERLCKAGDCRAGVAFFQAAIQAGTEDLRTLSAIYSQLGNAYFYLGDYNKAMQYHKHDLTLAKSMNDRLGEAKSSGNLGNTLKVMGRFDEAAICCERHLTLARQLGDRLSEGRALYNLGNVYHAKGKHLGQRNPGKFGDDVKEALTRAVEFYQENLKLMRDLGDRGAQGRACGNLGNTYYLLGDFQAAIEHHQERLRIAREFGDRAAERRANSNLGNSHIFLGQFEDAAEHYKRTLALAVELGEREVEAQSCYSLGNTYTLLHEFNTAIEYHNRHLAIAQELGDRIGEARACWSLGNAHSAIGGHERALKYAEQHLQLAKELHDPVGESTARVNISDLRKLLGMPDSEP

T2: MBP:Hts^FL (Drosophila (S2 cell cDNA library))
T2 chain: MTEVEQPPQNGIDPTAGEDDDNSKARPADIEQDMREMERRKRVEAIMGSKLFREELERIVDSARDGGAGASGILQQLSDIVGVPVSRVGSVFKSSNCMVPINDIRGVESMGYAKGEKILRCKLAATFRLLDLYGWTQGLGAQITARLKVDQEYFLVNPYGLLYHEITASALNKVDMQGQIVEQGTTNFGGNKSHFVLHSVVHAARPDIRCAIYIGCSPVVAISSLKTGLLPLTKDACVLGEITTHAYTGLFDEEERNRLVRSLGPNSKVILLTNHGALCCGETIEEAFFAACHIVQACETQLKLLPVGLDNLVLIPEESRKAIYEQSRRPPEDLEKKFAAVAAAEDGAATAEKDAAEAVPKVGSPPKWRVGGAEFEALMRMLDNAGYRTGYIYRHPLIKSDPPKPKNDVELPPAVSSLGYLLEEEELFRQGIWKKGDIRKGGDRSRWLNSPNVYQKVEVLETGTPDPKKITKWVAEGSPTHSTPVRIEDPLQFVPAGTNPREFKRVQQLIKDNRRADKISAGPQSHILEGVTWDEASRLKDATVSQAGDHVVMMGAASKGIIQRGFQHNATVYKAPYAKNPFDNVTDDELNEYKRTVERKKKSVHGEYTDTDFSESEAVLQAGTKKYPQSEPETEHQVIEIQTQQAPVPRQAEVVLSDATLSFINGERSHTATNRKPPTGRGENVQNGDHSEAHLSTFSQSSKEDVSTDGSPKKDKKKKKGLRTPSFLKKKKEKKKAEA

T3: MBP:Hts^1-319 (Drosophila (S2 cell cDNA library))
T3 chain: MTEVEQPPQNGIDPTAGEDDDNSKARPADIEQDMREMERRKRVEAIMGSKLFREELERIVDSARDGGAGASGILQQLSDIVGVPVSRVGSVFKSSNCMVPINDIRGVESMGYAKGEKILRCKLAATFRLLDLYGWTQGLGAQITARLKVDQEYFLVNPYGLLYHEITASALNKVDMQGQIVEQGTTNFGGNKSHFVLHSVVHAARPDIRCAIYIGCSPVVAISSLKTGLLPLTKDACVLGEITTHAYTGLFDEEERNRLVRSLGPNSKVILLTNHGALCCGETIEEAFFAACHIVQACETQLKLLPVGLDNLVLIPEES

T4: MBP:Hts^ALDO (Drosophila (S2 cell cDNA library))
T4 chain: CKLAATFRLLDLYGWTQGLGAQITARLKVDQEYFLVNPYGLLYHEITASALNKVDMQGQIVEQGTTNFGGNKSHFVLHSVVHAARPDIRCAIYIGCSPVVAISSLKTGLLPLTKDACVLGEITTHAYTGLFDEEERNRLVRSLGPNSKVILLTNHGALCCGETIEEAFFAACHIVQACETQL


Tests used:
[1] = biological target: T1, GST-fused Pins^TPR domains
MBP:Hts^FL [2] = biological target: T2, MBP:Hts^FL
MBP:Hts^1-319 = biological target: T3, MBP:Hts^1-319
MBP:Hts^FL [3] = biological target: T2, MBP:Hts^FL
MBP:Hts^ALDO = biological target: T4, MBP:Hts^ALDO

| Kd [1] | Kd (MBP:Hts^FL [2]) | Kd (MBP:Hts^1-319) | Kd (MBP:Hts^FL [3]) | Kd (MBP:Hts^ALDO) | Binder |
| --- | --- | --- | --- | --- | --- |
| 186 nM | 1620 nM | 550 nM | 620 nM | 760 nM | Mud^CC-PBD (domain or fragment, 6xHis tag removed by TEV. Limits not printed: start set just before L1788 (N-terminal end of the CC), end at the conventional PBD boundary (about 1982). Needs the NB isoform that includes the CC and PBD exons. Three copies follow from the predicted parallel trimer.) KLALDCKILQAKYRDAKDEIKRCEKKIKDQRLEMEGKLEKMKNKMRSLYTAEVTRMKEKQERDAAKSASELEALTAQNAKYEEHTRKLSNQIVRLNEKILEQQKQHAIISTNLRHLQMQPISETKPSSTTLTVSSSSSAPNDDWQPFKRPNVPSSNLAMEDEEGEVFNNTYLTDLKLGRVPADMTAEELIYRNSLQPPHLKST |
| 189 nM |  |  |  |  | Mud^CC-PBD L1788E/I1878D (ED) mutant (domain or fragment, 6xHis tag removed by TEV. The mutations disrupt the coiled-coil trimer. Limits not given, set by convention as for the wild type.) KLALDCKIEQAKYRDAKDEIKRCEKKIKDQRLEMEGKLEKMKNKMRSLYTAEVTRMKEKQERDAAKSASELEALTAQNAKYEEHTRKLSNQIVRLNEKDLEQQKQHAIISTNLRHLQMQPISETKPSSTTLTVSSSSSAPNDDWQPFKRPNVPSSNLAMEDEEGEVFNNTYLTDLKLGRVPADMTAEELIYRNSLQPPHLKST |
